How the values were obtained:
Human VPAC2 Receptor = target: T1, Human VPAC2 Receptor (Homo sapiens, UniProt P41587); assay: Alpha screen cAMP potency at human VPAC2 receptor; type: cell-based; conditions: cAMP generation; read-out: Human VPAC2 Receptor: Alphascreen (EC50; nM)
T1 sequence (P41587 24-438): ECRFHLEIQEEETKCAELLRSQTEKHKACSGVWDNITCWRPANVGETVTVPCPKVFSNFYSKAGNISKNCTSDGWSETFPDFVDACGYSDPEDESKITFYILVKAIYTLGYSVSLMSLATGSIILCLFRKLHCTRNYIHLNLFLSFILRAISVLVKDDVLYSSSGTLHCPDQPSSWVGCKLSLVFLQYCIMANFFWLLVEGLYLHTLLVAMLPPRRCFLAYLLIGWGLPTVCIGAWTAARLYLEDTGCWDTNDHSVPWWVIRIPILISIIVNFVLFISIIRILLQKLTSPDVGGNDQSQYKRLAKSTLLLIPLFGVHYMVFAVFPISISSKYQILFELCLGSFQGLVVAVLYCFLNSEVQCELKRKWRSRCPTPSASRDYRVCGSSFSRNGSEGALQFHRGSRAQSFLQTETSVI
Protocol: Alpha screen: Cells are washed in the culture flask once with PBS. Then, the cells are rinsed with enzyme free dissociation buffer. The dissociated cells are removed. The cells are then spun down and washed in stimulation buffer. For each data point, 50,000 cells suspended in stimulation buffer are used. To this buffer, Alpha screen acceptor beads are added along with the stimuli. This mixture is incubated for 60 minutes. Lysis buffer and Alpha screen donor beads are added and are incubated for 60 to 120 minutes. The Alpha screen signal (indicative of intracellular cAMP levels) is read in a suitable instrument (e.g. AlphaQuest from Perkin-Elmer). Steps including Alpha screen donor and acceptor beads are performed in reduced light. The EC50 for cAMP generation is calculated from the raw signal or is based on absolute cAMP levels as determined by a standard curve performed on each plate.
The tested peptide concentrations are: 10000, 1000, 100, 10, 3, 1, 0.1, 0.01, 0.003, 0.001, 0.0001 and 0.00001 nM.

Rat VPAC2 Receptor = target: T2, Rat VPAC2 Receptor (Rattus norvegicus, UniProt P35000); assay: DiscoveRx cAMP potency, CHO-PO cells transiently transfected with rat VPAC2 receptor; type: cell-based; conditions: cAMP generation
T2 construct: expressed in transfected cells; host or cells: CHO-PO (transient, Lipofectamine)
T2 sequence (P35000 23-437): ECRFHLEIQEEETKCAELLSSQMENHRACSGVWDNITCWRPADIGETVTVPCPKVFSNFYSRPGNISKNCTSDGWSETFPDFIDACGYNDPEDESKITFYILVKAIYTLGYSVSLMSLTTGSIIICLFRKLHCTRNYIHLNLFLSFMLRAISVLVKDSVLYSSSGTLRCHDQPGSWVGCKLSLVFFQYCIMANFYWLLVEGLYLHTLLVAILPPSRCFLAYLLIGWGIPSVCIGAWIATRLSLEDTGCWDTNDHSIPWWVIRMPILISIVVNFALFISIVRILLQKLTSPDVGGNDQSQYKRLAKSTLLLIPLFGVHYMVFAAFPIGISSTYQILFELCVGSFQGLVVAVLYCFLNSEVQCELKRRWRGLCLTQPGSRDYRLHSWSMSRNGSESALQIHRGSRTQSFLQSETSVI
Protocol: (§1) DiscoveRx: CHO-PO cells are transiently transfected with rat VPAC1 or VPAC2 receptor DNA using commercially available transfection reagents (Lipofectamine from Invitrogen). The cells are seeded at a density of 10,000/well in a 96-well plate and are allowed to grow for 3 days in […] culture medium At day 3, the assay is performed.
(§2) On the day of the experiment, the medium is removed. Also, the cells are washed twice. The cells are incubated in assay buffer plus IBMX for 15 minutes at room temperature. Afterwards, the stimuli are added and are dissolved in assay buffer. The stimuli are present for 30 minutes. Then, the assay buffer is gently removed. The cell lysis reagent of the DiscoveRx cAMP kit is added. Thereafter, the standard protocol for developing the cAMP signal as described by the manufacturer is used (DiscoveRx Inc., USA). EC50 values for cAMP generation are calculated from the raw signal or are based on absolute cAMP levels as determined by a standard curve performed on each plate.
(§3) Results for each agonist are the mean of two independent runs. Rat VPAC1 and VPAC2 results are only generated using the DiscoveRx assay.

Rat VPAC1 Receptor = target: T3, Rat VPAC1 Receptor (Rattus norvegicus, UniProt P30083); assay: DiscoveRx cAMP potency, CHO-PO cells transiently transfected with rat VPAC1 receptor; type: cell-based; conditions: cAMP generation
T3 construct: expressed in transfected cells; host or cells: CHO-PO (transient, Lipofectamine)
T3 sequence (P30083 31-459): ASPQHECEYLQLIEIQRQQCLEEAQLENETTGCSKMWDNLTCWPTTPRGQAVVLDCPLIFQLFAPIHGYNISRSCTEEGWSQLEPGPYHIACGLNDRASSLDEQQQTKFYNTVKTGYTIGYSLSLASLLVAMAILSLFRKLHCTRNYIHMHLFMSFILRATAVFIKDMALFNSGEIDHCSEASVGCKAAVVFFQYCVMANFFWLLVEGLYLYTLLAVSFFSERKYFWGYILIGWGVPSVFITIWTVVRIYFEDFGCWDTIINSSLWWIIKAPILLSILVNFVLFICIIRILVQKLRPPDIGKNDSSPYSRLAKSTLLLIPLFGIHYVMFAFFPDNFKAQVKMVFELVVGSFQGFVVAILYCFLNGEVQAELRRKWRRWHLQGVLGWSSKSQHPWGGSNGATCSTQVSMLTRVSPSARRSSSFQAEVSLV
Protocol: as §1, §2, §3

[1] = Rat serum stability study (DiscoveRx cAMP read-out on CHO-VPAC2 cells); conditions: EC50, 4° C./EC50, 37° C., values >100% may represent release of intact peptide from the PEG conjugate; for 24 h stab (%): 24 h in rat serum at 37° C.; for 72 h stab (%): 72 h in rat serum at 37° C.
Normal Wistar rats = assay: Intravenous glucose tolerance test (IVGTT); type: in vivo, rat; conditions: for % increase AUC: Dose = 0.1 mg/kg / % increase AUC: Dose = 0.3 mg/kg: AUC insulin, 0-10 min after glucose, 24 h between glucose & compound, Wistar rats; for insulin response to the i.v. glucose challenge: FIG. 1, animals treated 24 h prior to the glucose injection, versus vehicle-treated animals
Protocol: Intravenous glucose tolerance test (IVGTT): Normal Wistar rats are fasted overnight and are anesthetized prior to the experiment. A blood sampling catheter is inserted into the rats. The agonist is given subcutaneously, normally 24 h prior to the glucose challenge. Blood samples are taken from the carotid artery. A blood sample is drawn immediately prior to the injection of glucose along with the agonist. After the initial blood sample, glucose mixed is injected intravenously (i.v.). A glucose challenge of 0.5 g/kg body weight is given, injecting a total of 1.5 mL vehicle with glucose and agonist per kg body weight. The peptide concentrations are varied to produce the desired dose in μg/kg. Blood samples are drawn at 2, 4, 6 and 10 minutes after giving glucose. The control group of animals receives the same vehicle along with glucose, but with no agonist added. In some instances, 20 and 30 minute post-glucose blood samples were drawn. Aprotinin is added to the blood sample (250-500 kIU/ml blood). The plasma is then analyzed for glucose and insulin using standard methodologies.
The assay uses a formulated and calibrated peptide stock in PBS. Normally, this stock is a prediluted 100 μM stock. However, a more concentrated stock with approximately 1 mg agonist per mL is used. The specific concentration is always known. Variability in the maximal response is mostly due to variability in the vehicle dose.

[2] = Pharmacokinetic profiles of PEGylated peptides in Fisher 344 rats; type: in vivo, rat; conditions: 100 μg agonist/kg, plasma RIA, mean N = 3
Procedure, shortened: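 Healthy rats (n=3/group) received 100 μg agonist/kg in PBS, dose based on peptide content; route not given. Plasma sampled 3–168 h post-dose, peptide quantified by N-terminal-directed RIA, PK parameters derived by model-independent analysis.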

Human VPAC1 Receptor = target: T4, Human VPAC1 Receptor (Homo sapiens, UniProt P32241); assay: Filter binding assay, 125I-labeled VIP, membranes of cells transiently transfected with human VPAC1; conditions: 125I-labeled VIP tracer
T4 construct: expressed in transfected cells
T4 sequence (P32241 31-457): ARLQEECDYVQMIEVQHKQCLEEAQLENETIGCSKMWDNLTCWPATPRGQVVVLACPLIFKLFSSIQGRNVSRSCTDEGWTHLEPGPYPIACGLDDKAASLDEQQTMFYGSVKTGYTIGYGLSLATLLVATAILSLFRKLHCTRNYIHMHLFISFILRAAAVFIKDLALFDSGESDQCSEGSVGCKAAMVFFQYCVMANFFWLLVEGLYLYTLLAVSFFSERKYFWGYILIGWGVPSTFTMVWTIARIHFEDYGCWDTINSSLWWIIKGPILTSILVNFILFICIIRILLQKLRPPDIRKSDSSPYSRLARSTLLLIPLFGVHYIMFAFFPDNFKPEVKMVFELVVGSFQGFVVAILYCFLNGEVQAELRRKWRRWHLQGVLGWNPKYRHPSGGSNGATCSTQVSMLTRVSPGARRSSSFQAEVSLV

Human PAC1 Receptor = target: T5, Human PAC1 Receptor (Homo sapiens, UniProt P41586); assay: Filter binding assay, 125I-labeled PACAP-27, membranes of cells transiently transfected with human PAC1; conditions: 125I-labeled PACAP-27 tracer
T5 construct: expressed in transfected cells
T5 sequence (P41586 21-468): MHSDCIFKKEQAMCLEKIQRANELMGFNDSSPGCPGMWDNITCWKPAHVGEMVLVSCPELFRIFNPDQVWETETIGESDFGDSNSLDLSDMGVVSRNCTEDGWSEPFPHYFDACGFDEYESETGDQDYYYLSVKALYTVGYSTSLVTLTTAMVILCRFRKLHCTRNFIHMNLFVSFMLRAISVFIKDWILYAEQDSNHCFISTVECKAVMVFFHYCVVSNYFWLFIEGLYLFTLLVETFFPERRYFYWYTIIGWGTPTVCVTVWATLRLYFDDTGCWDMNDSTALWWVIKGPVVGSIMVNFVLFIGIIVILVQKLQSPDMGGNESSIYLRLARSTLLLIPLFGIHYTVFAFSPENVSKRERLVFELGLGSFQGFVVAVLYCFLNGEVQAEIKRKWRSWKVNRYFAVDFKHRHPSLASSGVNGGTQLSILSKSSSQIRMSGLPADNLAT
Protocol: For this assay, the solutions and equipment include:
Presoak solution: 0.5% Polyethyleneamine in Aqua dest
Buffer for flushing filter plates: 25 mM HEPES pH 7.4
Blocking buffer: 25 mM HEPES pH 7.4; 0.2% protease free BSA
Assay buffer: 25 mM HEPES pH 7.4; 0.5% protease free BSA
Dilution and assay plate: PS-Microplate, U form
Filtration Plate Multiscreen FB Opaque Plate; […] Type B Glasfiber filter
In order to prepare the filter plates, the presoak solution is aspirated by vacuum filtration. The plates are flushed twice with 200 μL flush buffer. 200 μL blocking buffer is added to the filter plate. The filter plate is then incubated with 200 μL presoak solution for 1 hour at room temperature.
The assay plate is filled with 25 μL assay buffer, 25 μL membranes (2.5 μg) suspended in assay buffer, 25 μL agonist in assay buffer, and 25 μL tracer (about 40000 cpm) in assay buffer. The filled plate is incubated for 1 hour with shaking.
The transfer from assay plate to filter plate is conducted. The blocking buffer is aspirated by vacuum filtration and washed two times with flush buffer. 90 μL is transferred from the assay plate to the filter plate. The 90 μL transferred from assay plate is aspirated and washed three times with 200 μL flush buffer. The plastic support is removed. It is dried for 1 hour at 60° C. 30 μL Microscint is added. The count is performed.

Work on “C6-HSDAVFTEQY(OMe)TOrnLRAibQC(PEG20K)AAAibOrnYLQSIOrnOrnGGPSSGAPPPC(PEG20K)-NH2 (HSDAVFTEQYTXLRXQCAAXXYLQSIXXGGPSSGAPPPC; C6 acyl, two PEG20K, C-terminal amide; Synthetic sequence PEGylated VPAC2 receptor agonist) [Agonist P568]” yielded an EC50 (Human VPAC2 Receptor) of 129 nM, an EC50 (Rat VPAC2 Receptor) of 250 nM and an EC50 (Rat VPAC1 Receptor) of over 1000 nM.
For “C6-HSDAVFTEQY(OMe)TOrnLRAibQLAAbuAibOrnYAibQAibIOrnOrnGGPSSGAPPPC(PEG20K)C(PEG20K)-NH2 (HSDAVFTEQYTXLRXQLAXXXYXQXIXXGGPSSGAPPPCC; C6 acyl, two PEG20K, C-terminal amide; Synthetic sequence PEGylated VPAC2 receptor agonist) [Agonist P525]”, the “24 h stab (%)” value [1] was 298%, the “72 h stab (%)” value [1] was 353% and the “% increase AUC: Dose = 0.1 mg/kg” value (Normal Wistar rats) was 72%. The “% increase AUC: Dose = 0.3 mg/kg” value (Normal Wistar rats) was 208%, the “insulin response to the i.v. glucose challenge” value (Normal Wistar rats) was “enhancement of the insulin response” and the AUC0-last [2] was 4740 ng·h/mL. It also gave a Cl/F [2] of 0.333 mL/min/kg, a Cmax [2] of 133 ng/mL and a Tmax [2] of 16 h. For the same substance, the T½ [2] was 22 h, the IC50 (Human VPAC1 Receptor) was over 25000 nM and the IC50 (Human PAC1 Receptor) was over 25000 nM.
With “C6-HSDAVFTEQY(OMe)TOrnLRAibQVAAAibK(CO(CH2)2SPEG40K)YLQSIOrnOrnGGPSSGAPPPS-NH2 (HSDAVFTEQYTXLRXQVAAXXYLQSIXXGGPSSGAPPPS; C6 acyl; PEG40K; non-natural residues; amide; Synthetic sequence PEGylated VPAC2 receptor peptide agonist) [Agonist P472]” the “24 h stab (%)” value [1] was 66%, the EC50 (Human VPAC2 Receptor) was 123 nM and the EC50 (Rat VPAC2 Receptor) was 285 nM.
In the case of “C6-HSDAVFTEQY(OMe)TOrnLRAibQVAAAibOrnYLQSIOrnC(PEG20K)OrnGGPSSGAPPPC(PEG20K)-NH2 (HSDAVFTEQYTXLRXQVAAXXYLQSIXCXGGPSSGAPPPC; C6 acyl, two PEG20K, C-terminal amide; Synthetic sequence PEGylated VPAC2 receptor agonist) [Agonist P505]”, the “24 h stab (%)” value [1] is reported as 133%, the “72 h stab (%)” value [1] is reported as 161% and the “% increase AUC: Dose = 0.1 mg/kg” value (Normal Wistar rats) is reported as 12%. For the same substance, the “% increase AUC: Dose = 0.3 mg/kg” value (Normal Wistar rats) was 74%, the “insulin response to the i.v. glucose challenge” value (Normal Wistar rats) was “enhancement of the insulin response” and the AUC0-last [2] was 7006 ng·h/mL. For the same substance, the Cl/F [2] was 0.217 mL/min/kg, the Cmax [2] was 160 ng/mL and the Tmax [2] was 12 h. It also gave a T½ [2] of 22 h, an IC50 (Human VPAC1 Receptor) of over 25000 nM and an IC50 (Human PAC1 Receptor) of over 25000 nM.
